# Results: US20060067919A1
# Biological target: truncated APC mutant in SW480 cells (human) (UniProt P25054)
# Test: cell-based or functional assay
# Sequence of UniProt P25054 (P25054 2-1337, change not shown): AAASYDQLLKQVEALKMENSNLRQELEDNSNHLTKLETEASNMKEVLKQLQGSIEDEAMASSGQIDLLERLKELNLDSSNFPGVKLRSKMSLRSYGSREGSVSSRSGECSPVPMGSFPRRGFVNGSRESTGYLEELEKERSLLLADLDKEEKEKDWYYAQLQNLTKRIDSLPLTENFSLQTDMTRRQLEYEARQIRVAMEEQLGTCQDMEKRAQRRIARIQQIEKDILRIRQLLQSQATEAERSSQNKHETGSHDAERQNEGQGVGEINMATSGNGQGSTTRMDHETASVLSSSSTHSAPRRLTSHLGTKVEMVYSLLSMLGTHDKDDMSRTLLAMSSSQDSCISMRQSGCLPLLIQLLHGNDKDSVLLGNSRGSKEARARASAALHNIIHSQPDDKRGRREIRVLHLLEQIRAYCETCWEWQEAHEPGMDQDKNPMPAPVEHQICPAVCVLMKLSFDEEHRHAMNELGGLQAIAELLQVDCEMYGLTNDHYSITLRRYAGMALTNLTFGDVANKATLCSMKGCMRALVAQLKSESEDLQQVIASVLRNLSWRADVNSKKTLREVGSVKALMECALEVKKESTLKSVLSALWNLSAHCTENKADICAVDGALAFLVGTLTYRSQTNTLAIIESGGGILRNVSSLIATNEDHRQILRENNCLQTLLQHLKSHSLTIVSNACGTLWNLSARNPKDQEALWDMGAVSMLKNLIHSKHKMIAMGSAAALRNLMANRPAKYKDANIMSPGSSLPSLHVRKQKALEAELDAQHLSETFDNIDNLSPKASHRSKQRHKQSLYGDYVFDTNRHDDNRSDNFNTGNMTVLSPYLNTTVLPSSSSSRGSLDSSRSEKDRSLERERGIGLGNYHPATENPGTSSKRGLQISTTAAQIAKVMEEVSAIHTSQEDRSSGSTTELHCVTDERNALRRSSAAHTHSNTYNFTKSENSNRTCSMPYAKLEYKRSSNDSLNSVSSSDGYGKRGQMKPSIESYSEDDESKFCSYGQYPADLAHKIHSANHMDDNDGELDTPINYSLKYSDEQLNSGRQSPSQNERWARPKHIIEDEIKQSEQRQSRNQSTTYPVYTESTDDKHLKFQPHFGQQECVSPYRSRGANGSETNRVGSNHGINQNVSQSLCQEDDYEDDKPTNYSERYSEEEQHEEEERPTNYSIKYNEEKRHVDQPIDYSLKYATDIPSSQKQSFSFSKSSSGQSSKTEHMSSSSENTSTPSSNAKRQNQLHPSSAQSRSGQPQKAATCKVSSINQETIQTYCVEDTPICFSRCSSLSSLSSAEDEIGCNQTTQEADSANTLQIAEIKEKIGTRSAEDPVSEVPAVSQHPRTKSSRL
Substance,decrease of migration of SW480 cells [% decrease],migration of SW480 cells relative to parental or Mock cells (% of parental or Mock cells)
Asef-ΔDH (mutant that lacks the DH domain (GEF domain) of Asef) (from UniProt Q9NR80 1-619),40,–
Asef-ABR expressed in cells from a plasmid (from UniProt Q9NR80 73-126),–,50
